In patent publication US20260008830A1:

Target: T1, IL-22 receptors R1 and R2 on HEK-Blue IL-22 reporter cells (UniProt Q8N6P7)
T1 sequence (looked up) 1: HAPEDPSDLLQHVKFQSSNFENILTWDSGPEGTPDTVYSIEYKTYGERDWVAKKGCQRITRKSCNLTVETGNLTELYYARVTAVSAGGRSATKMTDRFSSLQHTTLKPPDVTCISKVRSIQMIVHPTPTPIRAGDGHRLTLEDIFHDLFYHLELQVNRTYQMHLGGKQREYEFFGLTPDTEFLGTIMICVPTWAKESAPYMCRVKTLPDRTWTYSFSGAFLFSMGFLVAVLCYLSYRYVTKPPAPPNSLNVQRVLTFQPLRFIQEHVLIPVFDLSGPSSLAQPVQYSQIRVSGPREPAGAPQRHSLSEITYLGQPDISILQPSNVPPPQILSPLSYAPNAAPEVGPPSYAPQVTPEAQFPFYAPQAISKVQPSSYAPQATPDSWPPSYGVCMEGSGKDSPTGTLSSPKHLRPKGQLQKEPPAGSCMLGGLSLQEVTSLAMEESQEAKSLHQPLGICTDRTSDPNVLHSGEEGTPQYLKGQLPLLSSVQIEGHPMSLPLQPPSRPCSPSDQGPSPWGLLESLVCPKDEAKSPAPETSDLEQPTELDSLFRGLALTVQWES
T1 sequence (looked up) 2: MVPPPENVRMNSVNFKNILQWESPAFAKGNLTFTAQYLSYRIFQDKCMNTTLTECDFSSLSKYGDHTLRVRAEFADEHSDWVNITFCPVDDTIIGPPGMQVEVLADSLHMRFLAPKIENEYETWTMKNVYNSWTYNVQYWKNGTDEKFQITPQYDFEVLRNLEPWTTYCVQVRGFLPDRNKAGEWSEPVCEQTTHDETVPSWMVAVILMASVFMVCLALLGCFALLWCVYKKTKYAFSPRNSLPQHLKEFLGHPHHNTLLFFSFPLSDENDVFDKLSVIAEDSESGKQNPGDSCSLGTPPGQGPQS
Assay: cell-based or functional assay

Kd (apparent, HEK-Blue IL-22 reporter): 17 pM
B1: IL22 WT (monomeric IL22 based on the IL22 crystal, PDB 3dlq, expressed in bacteria) (ligand)
chain: ARLDKSNFQQPYITNRTFMLAKEASLADNNTDVRLIGEKLFHGVSMSERCYLMKQVLNFTLEEVLFPQSDRFQPYMQEVVPFLARLSNRLSTCHIEGDDLHIQRNVQKLKDTVKKLGESGEIKAIGELDLLFMSLRNACI
